Source: the supplement of paper PMC10567573

B1: C8orf76 (parent)
chain: LYLQLAICSSLQNLEKTIFCLQKL
B2: ZNF449 (parent)
chain: YRHQRLHTGERPYECTVCKKRFTR

Variants of: B1
Assay: protein stability index of a GFP-peptide fusion (GPS, HEK-293T) (PSI 1-6); higher = more stable
Details: c terminus: a fixed tail appended
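Note: lentivirally expressed fusions sorted by FACS into six bins by GFP to DsRed ratio, PSI derived from sequencing read proportions per bin multiplied by bin number.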

Row | Variant | protein stability index
1 | LYLQLAICSSLQNLEITIFCLQKL | 2.44
2 | LYLQLAICSSLQNLEKCIFCLQKL | 2.55
3 | LYLQLAICSSLQNLEKFIFCLQKL | 3.63
4 | LYLQLAICSSLQNLEKHIFCLQKL | 2.34
5 | LYLQLAICSSLQNLEKLIFCLQKL | 4
6 | LYLQLAICSSLQNLEKMIFCLQKL | 3.56
7 | LYLQLAICSSLQNLEKDIFCLQKL | 2.31
8 | LYLQLAICSSLQNLEKGIFCLQKL | 4.96
9 | LYLQLAICSSEQNLEKTIFCLQKL | 4.55
10 | LYLQLAICSSWQNLEKTIFCLQKL | 1.77
11 | LYLQLAICSSCQNLEKTIFCLQKL | 1.8
12 | LYLQLAICSSMQNLEKTIFCLQKL | 3.61
13 | LYLQLAICSSTQNLEKTIFCLQKL | 1.82
14 | LYLQLAICSSKQNLEKTIFCLQKL | 3.11
15 | LYLQLAICSSDQNLEKTIFCLQKL | 2.17
16 | LYLQLAICSSQQNLEKTIFCLQKL | 2.35
17 | LYLQLAICSSFQNLEKTIFCLQKL | 1.39
18 | LYLQLAICSSIQNLEKTIFCLQKL | 2.28
19 | LYLQLAICSSPQNLEKTIFCLQKL | 5.02
20 | LYLQLAICSSLKNLEKTIFCLQKL | 3.08
21 | LYLQLAICSSLFNLEKTIFCLQKL | 2.75
22 | LYLQLAICSSLHNLEKTIFCLQKL | 3.42
23 | LYLQLAICSSLGNLEKTIFCLQKL | 2.58

Row | Variant | protein stability index
24 | LYLQLAICSSLTNLEKTIFCLQKL | 4.52
25 | LYLQLAICSSLVNLEKTIFCLQKL | 2.3
26 | LYLQLAICSSLNNLEKTIFCLQKL | 2.07
27 | LYLQLAICSSLANLEKTIFCLQKL | 2.38
28 | LYLQLAICSSLENLEKTIFCLQKL | 2.29
29 | LYLQLAICSSLPNLEKTIFCLQKL | 2.52
30 | LYLQLAICSSLWNLEKTIFCLQKL | 3.78
31 | LYLQLAICSSLMNLEKTIFCLQKL | 3.9
32 | LHLQLAICSSLQNLEKTIFCLQKL | 3.59
33 | LVLQLAICSSLQNLEKTIFCLQKL | 3.11
34 | LTLQLAICSSLQNLEKTIFCLQKL | 2.08
35 | LRLQLAICSSLQNLEKTIFCLQKL | 4.79
36 | LPLQLAICSSLQNLEKTIFCLQKL | 1.62
37 | LELQLAICSSLQNLEKTIFCLQKL | 3.3
38 | LFLQLAICSSLQNLEKTIFCLQKL | 2.5
39 | LILQLAICSSLQNLEKTIFCLQKL | 3.14
40 | LSLQLAICSSLQNLEKTIFCLQKL | 2.26
41 | LDLQLAICSSLQNLEKTIFCLQKL | 1.07
42 | LNLQLAICSSLQNLEKTIFCLQKL | 2.69
43 | LCLQLAICSSLQNLEKTIFCLQKL | 1.42
44 | LWLQLAICSSLQNLEKTIFCLQKL | 3.02
45 | LKLQLAICSSLQNLEKTIFCLQKL | 2.42
46 | LYLQYAICSSLQNLEKTIFCLQKL | 2.57

Row | Variant | protein stability index
47 | LYLQFAICSSLQNLEKTIFCLQKL | 3.72
48 | LYLQKAICSSLQNLEKTIFCLQKL | 1.36
49 | LYLQEAICSSLQNLEKTIFCLQKL | 1.79
50 | LYLQRAICSSLQNLEKTIFCLQKL | 1.92
51 | LYLQWAICSSLQNLEKTIFCLQKL | 2.82
52 | LYLQPAICSSLQNLEKTIFCLQKL | 2.23
53 | LYLQTAICSSLQNLEKTIFCLQKL | 2.24
54 | LYLQGAICSSLQNLEKTIFCLQKL | 3.09
55 | LYLQCAICSSLQNLEKTIFCLQKL | 1.79
56 | LYLQHAICSSLQNLEKTIFCLQKL | 1.67
57 | LYLQVAICSSLQNLEKTIFCLQKL | 2.05
58 | LYLQNAICSSLQNLEKTIFCLQKL | 3.62
59 | LYLQAAICSSLQNLEKTIFCLQKL | 1.65
60 | LYLQLAICSSLQNLIKTIFCLQKL | 2.49
61 | LYLQLAICSSLQNLPKTIFCLQKL | 3.75
62 | LYLQLAICSSLQNLCKTIFCLQKL | 2.82
63 | LYLQLAICSSLQNLVKTIFCLQKL | 3.25
64 | LYLQLAICSSLQNLMKTIFCLQKL | 3.11
65 | LYLQLAICSSLQNLWKTIFCLQKL | 3.01
66 | LYLQLAICSSLQNLTKTIFCLQKL | 1.99
67 | LYLQLAICSSLQNLRKTIFCLQKL | 2.63
68 | LYLQLAICSSLQNLQKTIFCLQKL | 3.27
69 | LYLQLAICSSLQNLLKTIFCLQKL | 4.03

Row | Variant | protein stability index
70 | LYLQLAICSSLQNLDKTIFCLQKL | 1.75
71 | LYLQLAICSSLQNLFKTIFCLQKL | 4.35
72 | LYLQLAICSSLQNLGKTIFCLQKL | 1.69
73 | LYLQLAICSNLQNLEKTIFCLQKL | 3.36
74 | LYLQLAICSVLQNLEKTIFCLQKL | 3.44
75 | LYLQLAICSFLQNLEKTIFCLQKL | 4.67
76 | LYLQLAICSHLQNLEKTIFCLQKL | 3.71
77 | LYLQLAICSTLQNLEKTIFCLQKL | 2.38
78 | LYLQLAICSKLQNLEKTIFCLQKL | 2.11
79 | LYLQLAICSLLQNLEKTIFCLQKL | 2.99
80 | LYLQLAICSALQNLEKTIFCLQKL | 2.36
81 | LYLQLAICSPLQNLEKTIFCLQKL | 2.52
82 | LYLQLAICSSLQNTEKTIFCLQKL | 1.65
83 | LYLQLAICSSLQNAEKTIFCLQKL | 2.33
84 | LYLQLAICSSLQNDEKTIFCLQKL | 3.85
85 | LYLQLAICSSLQNIEKTIFCLQKL | 2.96
86 | LYLQLAICSSLQNGEKTIFCLQKL | 2.24
87 | LYLQLAICSSLQNKEKTIFCLQKL | 2.9
88 | LYLQLAICSSLQNMEKTIFCLQKL | 2.22
89 | LYLQLAICSSLQNPEKTIFCLQKL | 2.32
90 | LYLQLAICSSLQNEEKTIFCLQKL | 1.9
91 | LYLQLAICSSLQNNEKTIFCLQKL | 2.84
92 | LYLQLAICSSLQNHEKTIFCLQKL | 2.93

Variants of: B2
Assay: as above
Details: c terminus: a fixed tail appended

Row | Variant | protein stability index
93 | YRHQRLHTGERPYECTVCKKRFTY | 2.1
94 | YRHQRLHTGERPYECTVCKKRFTW | 1.87
